Here are results for 1 molecule from patent US9675789B2, “Embeddable micro-needle patch for transdermal drug delivery and method of manufacturing the same” (NATIONAL CHENG KUNG UNIVERSITY, priority 2012, dated 2017).

For this experiment, the system named is IgG antibodies induced by ovalbumin. Kind of experiment: immunity test: IgG antibodies induced by ovalbumin in blood serum, ELISA 450 nm absorbance. Type of experiment: in vivo, sprague dawley (SD) rats. As to conditions: SD rats, 1 mg ovalbumin at zero and fourteenth day, seventh day. The method, then: In another aspect of the embodiment, sprague dawley (SD) rats having four to six weeks of age are divided into three groups. Immune response is induced at zero day and fourteenth days by respectively encapsulating 1 mg of ovalbumin in the embeddable micro-needle patch for transdermal drug delivery, injecting saline in muscles, and injecting 1 mg of ovalbumin solution in muscles so as to produce correspondingly IgG antibodies, and blood is drawn from venous sinus under collarbones of the rats at zero day, seventh day, fourteenth day and twenty-first day. The drawn blood is detected by ELISA (enzyme-linked immunosorbent assay) to obtain 450 nm absorbance such that the contents of IgG antibodies antibody induced by ovalbumin in blood serum are determined.

B1: ovalbumin (protein, UniProt P01012 2-386, looked up)
Ovalbumin: GSIGAASMEFCFDVFKELKVHHANENIFYCPIAIMSALAMVYLGAKDSTRTQINKVVRFDKLPGFGDSIEAQCGTSVNVHSSLRDILNQITKPNDVYSFSLASRLYAEERYPILPEYLQCVKELYRGGLEPINFQTAADQARELINSWVESQTNGIIRNVLQPSSVDSQTAMVLVNAIVFKGLWEKAFKDEDTQAMPFRVTEQESKPVQMMYQIGLFRVASMASEKMKILELPFASGTMSMLVLLPDEVSGLEQLESIINFEKLTEWTSSNVMEERKIKVYLPRMKMEEKYNLTSVLMAMGITDVFSSSANLSGISSAESLKISQAVHAAHAEINEAGREVVGSAEAGVDAASVSEEFRADHPFLFCIKHIATNAVLFFGRCVSP
notes: 1 mg of ovalbumin solution injected in muscles, conventional muscle injection comparison group
In the case of B1, the “expression of induced IgG antibodies in blood serum compared with saline control group” value is reported as “can be discovered”.
